This is an account of results in patent publication US20050119456A1 (NEW YORK UNIVERSITY, published 2005).

In this assay the target is T1, GST-SMRT (Hu SMRT(1-900) fused to GST, from pGEX-6p-1) (human, UniProt Q9Y618 1-900).
T1 construct: range 1-900; Expressed in bacteria with IPTG and adsorbed onto glutathione sepharose 4B; also called GST-SMRT agarose; immobilized SMRT; not shown: glutathione S-transferase of the pGEX-6p-1 bacterial expression vector
As to the kind of experiment: GST pull-down of 35S-labeled in vitro translated C21 fragment. An excerpt: FIGS. 15A and 15B show GST-pull-down of in vitro synthesized C21 by SMRT (1-900). Hu SMRT(1-900) cDNA was amplified by PCR and cloned in-frame into pGEX-6p-1 (GST fusion expression vector for bacterial expression). Expression of the GST fusion protein (FIG. 15A) or control (FIG. 15B) was induced with IPTG and the product adsorbed onto glutathione sepharose 4B. hC21 (full-length ORF or fragments lacking the C-terminal half(δ C), the F-box (δ F), the N terminal 40 amino acid (δ N) or a construct lacking both the N-terminus and the F-box (δN+F) was cloned in-frame into pCDNA3 vector with a Flag tag at the N-terminus. The plasmid, linearized with EcoRI, was purified and used as a template to label the product. For the pull-down experiments, 5 ng of ³⁵S-labeled hC21 protein(s) and 20 ul of GST agarose or GST-SMRT agarose were mixed. All four C21 constructs labeled with equal efficiency and the same quantity of labeled protein were used in each experiment. The denatured proteins were then electrophoresed through a 10% SDS PAGE gel.
Labeled C21 prepared by in vitro translation using 35S methionine can be “pulled-down” by immobilized SMRT. […] A fragment (21[δC]) consisting only of the first 230 amino acids (i.e., lacking all of the WD40 repeats and the carboxyl terminus) was as efficient as the full-length protein in reacting with SMRT.

T1 sequence (Q9Y618 1-900): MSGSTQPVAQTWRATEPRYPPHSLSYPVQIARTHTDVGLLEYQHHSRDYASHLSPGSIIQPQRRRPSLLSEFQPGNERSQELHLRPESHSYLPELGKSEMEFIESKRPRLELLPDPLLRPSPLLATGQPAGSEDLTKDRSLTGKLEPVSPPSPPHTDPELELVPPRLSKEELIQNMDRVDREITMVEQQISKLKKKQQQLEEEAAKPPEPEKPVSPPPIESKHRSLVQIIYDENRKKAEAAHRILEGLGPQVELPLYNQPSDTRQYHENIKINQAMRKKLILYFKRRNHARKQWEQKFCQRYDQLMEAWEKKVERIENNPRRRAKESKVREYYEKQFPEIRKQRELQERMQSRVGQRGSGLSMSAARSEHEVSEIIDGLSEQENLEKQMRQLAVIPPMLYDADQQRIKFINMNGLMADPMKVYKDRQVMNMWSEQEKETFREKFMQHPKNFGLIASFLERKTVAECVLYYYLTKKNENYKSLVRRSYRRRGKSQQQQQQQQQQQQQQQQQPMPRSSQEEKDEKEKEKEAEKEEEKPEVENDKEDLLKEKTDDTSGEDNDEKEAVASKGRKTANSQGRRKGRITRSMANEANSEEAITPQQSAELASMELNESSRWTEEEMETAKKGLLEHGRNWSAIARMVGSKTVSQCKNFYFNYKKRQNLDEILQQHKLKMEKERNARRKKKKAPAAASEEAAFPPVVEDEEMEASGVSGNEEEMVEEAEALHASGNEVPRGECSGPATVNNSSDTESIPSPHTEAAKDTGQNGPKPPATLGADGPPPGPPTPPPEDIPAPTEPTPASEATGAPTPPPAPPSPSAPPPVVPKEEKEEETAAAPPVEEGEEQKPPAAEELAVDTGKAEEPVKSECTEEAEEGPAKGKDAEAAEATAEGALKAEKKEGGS

B1: 21[5N] (other)
chain: GALVPPAALISIIQKGLQYVEAEVSINEDGTLFDGRPIESLSLIDAVMPDVVQTRQQAYRDKLAQQQAAAAAAAAAAASQQGSAKNGENTANGEENGAHTIANNHTDMMEVDGDVEIPPNKAVVLRGHESEVFICAWNPVSDLLASGSGDSTARIWNLSENSTSGSTQLVLRHCIREGGQDVPSNKDVTSLDWNSEGTLLATGSYDGFARIWTKDGNLASTLGQHKGPIFALKWNKKGNFILSAGVDKTTIIWDAHTGEAKQQFPFHSAPALDVDWQSNNTFASCSTDMCIHVCKLGQDRPIKTFQGHTNEVNAIKWDPTGNLLASCSDDMTLKIWSMKQDNCVHDLQQHNKEIYTIKWSPTGPGTNNPNANLMLASASFDSTVRLWDVDRGICIHTLTKHQEPVYSVAFSPDGRYLASGSFDKCVHIWNTQTGALVHSYRGTGGIFEVCWNAAGDKVGASASDGSVCVLDLRK
modifications: 35S-methionine label
notes: also called δ N; hC21 fragment lacking the N terminal 40 amino acid; not shown: Flag tag at the N-terminus
As for B1, the binding result is on record as “no binding”.
